Where no end group is shown, it is not given here.
T1: sST2 recombinant (human)
T1 chain: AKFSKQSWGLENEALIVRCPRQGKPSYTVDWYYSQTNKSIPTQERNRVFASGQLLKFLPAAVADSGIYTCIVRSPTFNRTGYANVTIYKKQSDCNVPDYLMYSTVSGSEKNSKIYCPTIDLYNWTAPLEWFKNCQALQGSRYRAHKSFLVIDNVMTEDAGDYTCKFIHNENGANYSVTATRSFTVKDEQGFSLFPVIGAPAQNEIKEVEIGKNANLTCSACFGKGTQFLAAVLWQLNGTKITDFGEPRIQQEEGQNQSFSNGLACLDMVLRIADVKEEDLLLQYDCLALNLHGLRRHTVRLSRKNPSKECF

T2: SKECF peptide (human, not fully specified)
T2 chain: SKECF

B1: scFv-αsST2 (scFv 96-1) (antibody)
chain: MQVQLQQWGAGLLKPSETLSLTCAVYGGSFSGYYWSWIRQPPGKGLEWIGEINHSGSTNYNPSLKSRVTVSLDTSKNQFSLKLSSVTAADTAVYYCARGRGLVRFDSWGQGTTVTVSSGGGGSGGGGSGGGGSEIVLTQSPGTLSLSPGDRATLSCRASQFVGSSSVAWYQQRPGQAPRLLIYAAVSRASGIPDRFSGGGSGTDFTLTISRLEPEDSAVYYCLQYGSALYTFGQGTKLEIK
modifications: listing feature
B2: scFv-αsST2 (scFv 96-1) (antibody)
chain: MQVQLQQWGAGLLKPSETLSLTCAVYGGSFSGYYWSWIRQPPGKGLEWIGEINHSGSTNYNPSLKSRVTVSLDTSKNQFSLKLSSVTAADTAVYYCARGRGLVRFDSWGQGTTVTVSSGGGGSGGGGSGGGGSEIVLTQSPGTLSLSPGDRATLSCRASQFVGSSSVAWYQQRPGQAPRLLIYAAVSRASGIPDRFSGGGSGTDFTLTISRLEPEDSAVYYCLQYGSALYTFGQGTKLEIK

Key:
sST2 recombinant = biological target: T1, sST2 recombinant; experiment: ELISA
SKECF peptide = biological target: T2, SKECF peptide; experiment: SPR

Binder | Kd (sST2 recombinant) [µM] | Kd (SKECF peptide) [µM]
B1 | 23 | 
B2 |  | 1.71

From US20260356960 (published 2026)
